Data on three molecules can be found in PMC3202535, “A Novel Metagenomic Short-Chain Dehydrogenase/Reductase Attenuates Pseudomonas aeruginosa Biofilm Formation and Virulence on Caenorhabditis elegans” (PLoS ONE, 2011).

Test [1] concerns the target T1, BpiB09 (uncultured bacterium Bio5, UniProt B2BKB1).
T1 construct: about 720 bp gene; His-tag purified from E. coli BL21 DE3 (pET-19b; also cloned in pET-21a); homotetramer
In words: HPLC-MS of reduction to 3-hydroxy-C12-HSL. To be noted: 1 mM NADPH, 100 mM potassium phosphate pH 7.0, 20% DMSO, 30 C, 16 h; 4 mM substrate (5 mM in Results). The class given is biochemical.

The target of test [2] is T1, BpiB09. In words: X-ray crystal structure, […] A. The class given is binding. The note with it: 1 mM NADP+ added before crystallisation; 0.1 M citric acid pH 4.5, 1.5 M LiSO4; 292 K; nucleotide site; modelled as partial NADP+, nicotinamide half poorly defined.
The target in test [3] is BpiB09 (soil metagenome (not yet cultivated microbe)). In words: SEC; gel permeation chromatography during purification (data not shown). For orientation: Size exclusion chromatography separates by hydrodynamic size, large species first.
The target is the same in test [4]. Nature of the test: AUC; analytical ultracentrifugation of recombinant BpiB09 and its mutants; conditions not given.
The target is the same in test [5]. Nature of the test: crystal structure; BpiB09 with NADP+; crystals from 0.1 M citric acid pH 4.5 and 1.5 M LiSO4 at 292 K; space group I422, four copies per asymmetric unit, tetramer completed by a crystallographic dyad; 2.4 Å.

T1 sequence (B2BKB1 entry or part of it): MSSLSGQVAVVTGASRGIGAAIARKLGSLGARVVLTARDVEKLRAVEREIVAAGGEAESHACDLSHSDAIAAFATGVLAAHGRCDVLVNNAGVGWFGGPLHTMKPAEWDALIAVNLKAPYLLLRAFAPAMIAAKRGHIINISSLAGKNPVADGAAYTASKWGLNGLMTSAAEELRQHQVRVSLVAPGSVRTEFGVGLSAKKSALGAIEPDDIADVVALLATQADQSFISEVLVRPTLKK

With `CCCCCCCCCC(=O)CC(=O)N[C@H]1CCOC1=O` [3-oxo-C12-HSL, N-(3-oxo-dodecanoyl)-L-homoserine lactone], on BpiB09 [1], the “HPLC-MS of reduction to 3-hydroxy-C12-HSL” value is listed as “analyses of purified enzyme resulted in a turnover of 3-oxo-C12-HSL to 3-hydroxy-C12-HSL”.

As to `NC(=O)c1ccc[n+]([C@@H]2O[C@H](COP(=O)(O)OP(=O)(O)OC[C@H]3O[C@@H](n4cnc5c(N)ncnc54)[C@H](OP(=O)(O)O)[C@@H]3O)[C@@H](O)[C@H]2O)c1` [NADP+], on BpiB09 [2], the “X-ray crystal structure, 2.4 A” value is “adding NADP+ prior to crystallization resulted in a higher occupancy of the bound NADP+”.

Broadly, the stoichiometry N is a count of units in the complex or per binding partner. With BpiB09 (enzyme), the stoichiometry N in test [3], in test [4] and in test [5] was 4 each time.
